Reference: paper PMC9977175 (Science Advances, 2023)

B1: ATG16L1(124 to 247) (domain or fragment, human, UniProt Q676U5 124-247, looked up)
chain: MQMNEAKIAECLQTISDLETECLDLRTKLCDLERANQTLKDEYDALQITFTALEGKLRKTTEENQELVTRWMAEKAQEANRLNAENEKDSRRRQARLQKELAEAAKEPLPVEQDDDIEVIVDET
B2: Trx-tagged ATG16L1(78 to 206) (domain or fragment, human, UniProt Q676U5 78-206, looked up)
chain: NDNQLQEMAQLRIKHQEELTELHKKRGELAQLVIDLNNQMQRKDREMQMNEAKIAECLQTISDLETECLDLRTKLCDLERANQTLKDEYDALQITFTALEGKLRKTTEENQELVTRWMAEKAQEANRLN
B3: Trx-ATG16L1(78 to 197) (domain or fragment, human, UniProt Q676U5 78-197, looked up)
chain: NDNQLQEMAQLRIKHQEELTELHKKRGELAQLVIDLNNQMQRKDREMQMNEAKIAECLQTISDLETECLDLRTKLCDLERANQTLKDEYDALQITFTALEGKLRKTTEENQELVTRWMAE
B4: Trx-tagged ATG16L1(78 to 247) (domain or fragment, human, UniProt Q676U5 78-247, looked up)
chain: NDNQLQEMAQLRIKHQEELTELHKKRGELAQLVIDLNNQMQRKDREMQMNEAKIAECLQTISDLETECLDLRTKLCDLERANQTLKDEYDALQITFTALEGKLRKTTEENQELVTRWMAEKAQEANRLNAENEKDSRRRQARLQKELAEAAKEPLPVEQDDDIEVIVDET

Target: the molecule itself
Assay: SEC-MALS

Stoichiometry N, 2:
B1, B2, B3, B4
